Test results as given in PMC4546058.

Legend:
[1] = biological target: Str enolase 137/363–2 (ΔK434-K435) (Streptococcus pyogenes) (UniProt P69949); test: AUC; sedimentation velocity, Beckman XL-I, 20°C, 30 000-37 000 RPM, TME-SO4 (50 mM Tris, 1 mM MgSO4, 0.1 mM EDTA, 44 mN H2SO4, pH 7.4); c(s) in Sedfit; octamer to 8 monomers
[2] = biological target: Str enolase 137/363–2 (ΔK434-K435) (Streptococcus pyogenes) (UniProt P69949)
[3] = biological target: Str enolase 137/363–3 (ΔL433-K435) (Streptococcus pyogenes) (UniProt P69949); test: AUC; sedimentation velocity, Beckman XL-I, 20°C, 30 000-37 000 RPM, TME-SO4 (50 mM Tris, 1 mM MgSO4, 0.1 mM EDTA, 44 mN H2SO4, pH 7.4); c(s) in Sedfit; octamer to 8 monomers
[4] = biological target: Str enolase 137/363–3 (ΔL433-K435) (Streptococcus pyogenes) (UniProt P69949)
[5] = biological target: Str enolase 137/363–6 (ΔF430-K435) (Streptococcus pyogenes) (UniProt P69949)
[6] = biological target: Str enolase 137/363–6 (ΔF430-K435) (Streptococcus pyogenes) (UniProt P69949); remark: listed apart in the source
[7] = biological target: Str enolase DB F137L (Streptococcus pyogenes) (UniProt P69949); test: AUC; sedimentation velocity, Beckman XL-I, 20°C, 30 000-37 000 RPM, TME-SO4 (50 mM Tris, 1 mM MgSO4, 0.1 mM EDTA, 44 mN H2SO4, pH 7.4); c(s) in Sedfit; octamer to 8 monomers
[8] = biological target: Str enolase DB F137L (Streptococcus pyogenes) (UniProt P69949)
[9] = biological target: Str enolase DB E363G (Streptococcus pyogenes) (UniProt P69949); test: AUC; sedimentation velocity, Beckman XL-I, 20°C, 30 000-37 000 RPM, TME-SO4 (50 mM Tris, 1 mM MgSO4, 0.1 mM EDTA, 44 mN H2SO4, pH 7.4); c(s) in Sedfit; octamer to 8 monomers
[10] = biological target: Str enolase DB E363G (Streptococcus pyogenes) (UniProt P69949)
[11] = biological target: Str enolase 137/363–8 (ΔK428-K435) (Streptococcus pyogenes) (UniProt P69949)
[12] = biological target: Str enolase 137/363–8 (ΔK428-K435) (Streptococcus pyogenes) (UniProt P69949); remark: listed apart in the source
[13] = biological target: enolase from Streptococcus pyogenes F137L/E363G (Streptococcus pyogenes) (UniProt P69949); test: AUC; sedimentation velocity, Beckman XL-I, 20°C, 30 000-37 000 RPM, TME-SO4 (50 mM Tris, 1 mM MgSO4, 0.1 mM EDTA, 44 mN H2SO4, pH 7.4); c(s) in Sedfit; octamer to 8 monomers
[14] = biological target: enolase from Streptococcus pyogenes F137L/E363G (Streptococcus pyogenes) (UniProt P69949)
[15] = biological target: Str enolase 137/363–5 (ΔY431-K435) (Streptococcus pyogenes) (UniProt P69949); test: AUC; sedimentation velocity, Beckman XL-I, 20°C, 30 000-37 000 RPM, TME-SO4 (50 mM Tris, 1 mM MgSO4, 0.1 mM EDTA, 44 mN H2SO4, pH 7.4); c(s) in Sedfit; octamer to 8 monomers
[16] = biological target: Str enolase 137/363–5 (ΔY431-K435) (Streptococcus pyogenes) (UniProt P69949)
[17] = biological target: Str enolase 137/363–4 (ΔN432-K435) (Streptococcus pyogenes) (UniProt P69949); test: AUC; sedimentation velocity, Beckman XL-I, 20°C, 30 000-37 000 RPM, TME-SO4 (50 mM Tris, 1 mM MgSO4, 0.1 mM EDTA, 44 mN H2SO4, pH 7.4); c(s) in Sedfit; octamer to 8 monomers
[18] = biological target: Str enolase 137/363–4 (ΔN432-K435) (Streptococcus pyogenes) (UniProt P69949)
[19] = biological target: Str enolase 137/363–1 (ΔK435) (Streptococcus pyogenes) (UniProt P69949); test: AUC; sedimentation velocity, Beckman XL-I, 20°C, 30 000-37 000 RPM, TME-SO4 (50 mM Tris, 1 mM MgSO4, 0.1 mM EDTA, 44 mN H2SO4, pH 7.4); c(s) in Sedfit; octamer to 8 monomers
[20] = biological target: Str enolase 137/363–1 (ΔK435) (Streptococcus pyogenes) (UniProt P69949)

In the case of “Str enolase 137/363–2 (ΔK434-K435) (from UniProt P69949 1-433) (enzyme)”, the stoichiometry N [1] was 8 and the Molecular Activity (2-phosphoglycerate to phosphoenolpyruvate, 20°C), taken as the amount of octamer [2] was 1730 min⁻¹.

For “Str enolase 137/363–3 (ΔL433-K435) (from UniProt P69949 1-432) (enzyme)”, the stoichiometry N [3] was 8 and the Molecular Activity (2-phosphoglycerate to phosphoenolpyruvate, 20°C), taken as the amount of octamer [4] was 497 min⁻¹.

With “Str enolase 137/363–6 (ΔF430-K435) (from UniProt P69949 1-429) (enzyme)” the Molecular Activity (2-phosphoglycerate to phosphoenolpyruvate, 20°C), taken as the amount of octamer [5] was 0.22 min⁻¹ and the total amount of octamer estimated from activity assays, as percent of the concentration of the Str enolase DB [6] was 0.0002%.

In the case of “Str enolase DB F137L (from UniProt P69949 1-435) (enzyme)”, the stoichiometry N [7] was 8 and the Molecular Activity (2-phosphoglycerate to phosphoenolpyruvate, 20°C), taken as the amount of octamer [8] was 7160 min⁻¹.

“Str enolase DB E363G (from UniProt P69949 1-435) (enzyme)” showed a stoichiometry N [9] of 8 and a Molecular Activity (2-phosphoglycerate to phosphoenolpyruvate, 20°C), taken as the amount of octamer [10] of 8460 min⁻¹.

For “Str enolase 137/363–8 (ΔK428-K435) (from UniProt P69949 1-427) (enzyme)”, the Molecular Activity (2-phosphoglycerate to phosphoenolpyruvate, 20°C), taken as the amount of octamer [11] was 0.08 min⁻¹ and the total amount of octamer estimated from activity assays, as percent of the concentration of the Str enolase DB [12] was 0.0002%.

“enolase from Streptococcus pyogenes F137L/E363G (from UniProt P69949 1-435) (enzyme)” showed a stoichiometry N [13] of 8 and a Molecular Activity (2-phosphoglycerate to phosphoenolpyruvate, 20°C), taken as the amount of octamer [14] of 5250 min⁻¹.

“Str enolase 137/363–5 (ΔY431-K435) (from UniProt P69949 1-430) (enzyme)” gave a stoichiometry N [15] of 8 and a Molecular Activity (2-phosphoglycerate to phosphoenolpyruvate, 20°C), taken as the amount of octamer [16] of 0.36 min⁻¹.

In the case of “Str enolase 137/363–4 (ΔN432-K435) (from UniProt P69949 1-431) (enzyme)”, the stoichiometry N [17] was 8 and the Molecular Activity (2-phosphoglycerate to phosphoenolpyruvate, 20°C), taken as the amount of octamer [18] was 27 min⁻¹.

“Str enolase 137/363–1 (ΔK435) (from UniProt P69949 1-434) (enzyme)” was tested, and the stoichiometry N [19] was 8 and the Molecular Activity (2-phosphoglycerate to phosphoenolpyruvate, 20°C), taken as the amount of octamer [20] was 4040 min⁻¹.
